Measured values as given in patent publication US20240317847A1 (Bayer, published 2024).

T1: human IL-11 (human, UniProt P20809 22-199)
T1 sequence: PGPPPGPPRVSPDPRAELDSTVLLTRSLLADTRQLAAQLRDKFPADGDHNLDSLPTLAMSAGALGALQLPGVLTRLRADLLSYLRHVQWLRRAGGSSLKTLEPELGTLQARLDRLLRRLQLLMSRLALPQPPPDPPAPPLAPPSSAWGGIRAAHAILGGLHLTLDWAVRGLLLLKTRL

T2: murine IL-11 (mouse, UniProt P47873 22-199)
T2 sequence: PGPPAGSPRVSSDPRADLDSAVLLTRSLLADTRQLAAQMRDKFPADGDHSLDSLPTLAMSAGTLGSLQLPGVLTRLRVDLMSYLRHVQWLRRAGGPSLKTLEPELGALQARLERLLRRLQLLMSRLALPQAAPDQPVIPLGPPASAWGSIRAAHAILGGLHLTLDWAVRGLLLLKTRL

T3: cynomolgus IL-11 (cynomolgus, UniProt P20808 22-199)
T3 construct: Invigate, lot #C290621-19; also called cIL11; cynoL-11
T3 sequence: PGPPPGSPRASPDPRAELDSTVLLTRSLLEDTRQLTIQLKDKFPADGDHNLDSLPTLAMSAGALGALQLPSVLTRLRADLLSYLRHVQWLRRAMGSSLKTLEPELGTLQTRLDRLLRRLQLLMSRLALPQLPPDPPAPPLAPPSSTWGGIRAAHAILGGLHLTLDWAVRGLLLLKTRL

T4: rat IL-11 (rat, UniProt Q99MF5 22-199)
T4 construct: Invigate, e.g. lot #C301019-19; also called rIL11
T4 sequence: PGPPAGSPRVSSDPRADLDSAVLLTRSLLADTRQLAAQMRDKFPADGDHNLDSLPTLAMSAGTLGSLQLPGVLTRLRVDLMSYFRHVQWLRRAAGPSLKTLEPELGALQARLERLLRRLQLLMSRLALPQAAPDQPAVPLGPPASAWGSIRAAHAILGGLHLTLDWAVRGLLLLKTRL


Key:
human IL-11 [1] = molecular target: T1, human IL-11; assay: cell-based or functional assay
murine IL-11 [2] = molecular target: T2, murine IL-11; assay: cell-based or functional assay
human IL-11 [3] = molecular target: T1, human IL-11; assay: SPR, antibody captured, IL-11 as analyte
murine IL-11 [4] = molecular target: T2, murine IL-11; assay: SPR, antibody captured, IL-11 as analyte
cynomolgus IL-11 = molecular target: T3, cynomolgus IL-11; assay: SPR, antibody captured, IL-11 as analyte
rat IL-11 = molecular target: T4, rat IL-11; assay: SPR, antibody captured, IL-11 as analyte

| Binder | RGA Efficacy (%) (human IL-11 [1]) | RGA IC50 (human IL-11 [1]) [pM] | RGA Efficacy (%) (murine IL-11 [2]) | Kd (human IL-11 [3]) [nM] | Kd (murine IL-11 [4]) [nM] | Kd (cynomolgus IL-11) [nM] | Kd (rat IL-11) [nM] | RGA IC50 (murine IL-11 [2]) [pM] |
| --- | --- | --- | --- | --- | --- | --- | --- | --- |
| TPP-29391 (antibody, human IgG1, V domains shown) VH: EVQLLESGGGLVQPGGSLRLSCAASGFTFSSYGMHWVRQAPGKGLEWVAVISYDGSYKYYADSVKGRFTISRDNSKNTLYLQMNSLRAEDTAVYYCAAGVPDYWGQGTLVTVSS VL: QSVLTQPPSASGTPGQRVTISCSGSSSNIGSDYDVHWYQQLPGTAPKLLIYSNNERPSGVPDRFSGSKSGTSASLAISGLRSEDEADYYCAAWDSSLYGPVFGGGTKLTVL | 84 | 540 | 96.9 | 0.36 | 0.17 | 0.69 | 0.071 | – |
| TPP-29381 (antibody, human IgG1, V domains shown) VH: EVQLLESGGGLVQPGGSLRLSCAASGFTFSSYGMHWVRQAPGKGLEWVAVISYDGSYKYYADSVKGRFTISRDNSKNTLYLQMNSLRAEDTAVYYCAAGVPDYWGQGTLVTVSS VL: QSVLTQPPSASGTPGQRVTISCSGSSSNIGSDYDVHWYQQLPGTAPKLLIYSNNERPSGVPDRFSGSKSGTSASLAISGLRSEDEADYYCSAWDSSLSGPVFGGGTKLTVL | 75.3 | 480 | 94.8 | 0.62 | 0.57 | 0.43 | 0.3 | 450 |
| TPP-29382 (antibody, human IgG1, V domains shown) VH: EVQLLESGGGLVQPGGSLRLSCAASGFTFSSYGMHWVRQAPGKGLEWVAVISYDGSYKYYADSVKGRFTISRDNSKNTLYLQMNSLRAEDTAVYYCAAGVPDYWGQGTLVTVSS VL: QSVLTQPPSASGTPGQRVTISCSGSSSNIGSDLDVHWYQQLPGTAPKLLIYSNNERPSGVPDRFSGSKSGTSASLAISGLRSEDEADYYCAAWDFSLYGPVFGGGTKLTVL | 81.4 | 640 | 87.5 | 0.44 | 0.56 | 0.46 | 0.2 | 260 |
| TPP-29383 (antibody, human IgG1, V domains shown) VH: EVQLLESGGGLVQPGGSLRLSCAASGFTFSSYGMHWVRQAPGKGLEWVAVISYDGSYKYYADSVKGRFTISRDNSKNTLYLQMNSLRAEDTAVYYCAAGVPDYWGQGTLVTVSS VL: QSVLTQPPSASGTPGQRVTISCSGSSSNIGSDLDVHWYQQLPGTAPKLLIYSNEERPSGVPDRFSGSKSGTSASLAISGLRSEDEADYYCAAWDPSLYGPVFGGGTKLTVL | 86 | 1600 | 94.2 | 1.1 | 0.62 | 1.3 | 0.31 | 570 |
| TPP-29384 (antibody, human IgG1, V domains shown) VH: EVQLLESGGGLVQPGGSLRLSCAASGFTFSSYGMHWVRQAPGKGLEWVAVISYDGSYKYYADSVKGRFTISRDNSKNTLYLQMNSLRAEDTAVYYCAAGVPDYWGQGTLVTVSS VL: QSVLTQPPSASGTPGQRVTISCSGSSSNIGSGYDVHWYQQLPGTAPKLLIYSNEERPSGVPDRFSGSKSGTSASLAISGLRSEDEADYYCAAWDPSLSGPVFGGGTKLTVL | 81.9 | 2800 | 97.2 | 0.98 | 0.3 | 0.86 | 0.18 | 330 |
| TPP-29389 (antibody, human IgG1, V domains shown) VH: EVQLLESGGGLVQPGGSLRLSCAASGFTFSSYGMHWVRQAPGKGLEWVAVISYDGSYKYYADSVKGRFTISRDNSKNTLYLQMNSLRAEDTAVYYCAAGVPDYWGQGTLVTVSS VL: QSVLTQPPSASGTPGQRVTISCSGSSSNIGSYYDVHWYQQLPGTAPKLLIYSNEERPSGVPDRFSGSKSGTSASLAISGLRSEDEADYYCAAWDPSLYGPVFGGGTKLTVL | 87.3 | 840 | 97.4 | 0.23 | 0.12 | 0.91 | 0.083 | 290 |
| TPP-29392 (antibody, human IgG1, V domains shown) VH: EVQLLESGGGLVQPGGSLRLSCAASGFTFSSYGMHWVRQAPGKGLEWVAVISYDGSYKYYADSVKGRFTISRDNSKNTLYLQMNSLRAEDTAVYYCAAGVPDYWGQGTLVTVSS VL: QSVLTQPPSASGTPGQRVTISCSGSSSNIWSDYDVHWYQQLPGTAPKLLIYSNEERPSGVPDRFSGSKSGTSASLAISGLRSEDEADYYCAAWDSSLSGPVFGGGTKLTVL | 80.2 | 1200 | 89.3 | 0.92 | 1.1 | 0.85 | 0.95 | – |
| TPP-29393 (antibody, human IgG1, V domains shown) VH: EVQLLESGGGLVQPGGSLRLSCAASGFTFSSYGMHWVRQAPGKGLEWVAVISYDGSYKYYADSVKGRFTISRDNSKNTLYLQMNSLRAEDTAVYYCAAGVPDYWGQGTLVTVSS VL: QSVLTQPPSASGTPGQRVTISCSGSSSNIGSDLDVHWYQQLPGTAPKLLIYSNEERPSGVPDRFSGSKSGTSASLAISGLRSEDEADYYCAAWDDSLYGPVFGGGTKLTVL | 87.3 | 610 | 96.2 | 0.66 | 0.39 | 0.72 | 0.18 | 240 |
| TPP-29394 (antibody, human IgG1, V domains shown) VH: EVQLLESGGGLVQPGGSLRLSCAASGFTFSSYGMHWVRQAPGKGLEWVAVISYDGSYKYYADSVKGRFTISRDNSKNTLYLQMNSLRAEDTAVYYCAAGVPDYWGQGTLVTVSS VL: QSVLTQPPSASGTPGQRVTISCSGSSSNIGSDYDVHWYQQLPGTAPKLLIYSNNERPSGVPDRFSGSKSGTSASLAISGLRSEDEADYYCAAWDFSLYGPVFGGGTKLTVL | 89.8 | 1700 | 93.9 | 1.2 | 0.65 | 0.67 | 0.37 | 480 |
| TPP-29396 (antibody, human IgG1, V domains shown) VH: EVQLLESGGGLVQPGGSLRLSCAASGFTFSSYGMHWVRQAPGKGLEWVAVISYDGSYKYYADSVKGRFTISRDNSKNTLYLQMNSLRAEDTAVYYCAAGVPDYWGQGTLVTVSS VL: QSVLTQPPSASGTPGQRVTISCSGSSSNIWSDYDVHWYQQLPGTAPKLLIYSNEERPSGVPDRFSGSKSGTSASLAISGLRSEDEADYYCAAWDFSLYGPVFGGGTKLTVL | 78.9 | 650 | 96.1 | 0.78 | 0.7 | 0.92 | 0.44 | 390 |
| TPP-29397 (antibody, human IgG1, V domains shown) VH: EVQLLESGGGLVQPGGSLRLSCAASGFTFSSYGMHWVRQAPGKGLEWVAVISYDGSYKYYADSVKGRFTISRDNSKNTLYLQMNSLRAEDTAVYYCAAGVPDYWGQGTLVTVSS VL: QSVLTQPPSASGTPGQRVTISCSGSSSNIWSGYDVHWYQQLPGTAPKLLIYSNEERPSGVPDRFSGSKSGTSASLAISGLRSEDEADYYCAAWDSSLYGPVFGGGTKLTVL | 71 | 530 | 93.8 | 0.35 | 0.11 | 0.8 | 0.057 | 310 |
